One may read the Kd as a measure of binding affinity in units of concentration. As a reminder, the koff is a measure of how fast the partners let go of each other. A higher koff goes with fast dissociation. The kon is a measure of how fast the partners come together. The low end stands for slow association, the high end for fast association.

Data on one molecule can be found in patent US20150299258A1 (UNIVERSITY OF TOKYO, published 2015).

The target in assay [1] is T1, fusion protein of human VEGFR2 and Fc (human, UniProt P35968 20-764, limits assumed).
T1 construct: not shown: Fc
Kind of assay: BLI (ForteBio), VEGFR2-Fc on anti-human IgG capture biosensors, peptide in solution, 30 C. The protocol:
A dissociation constant of binding between the cyclic peptide L1 or BL1 thus synthesized and human VEGFR2 or mouse VEGFR2 was determined by BLI method (ForteBio). A fusion protein of VEGFR2 and Fc was immobilized onto Anti-human IgG Capture Biosensors and the cyclic peptide L1 or BL1 varied in concentration was analyzed. The temperature was set at 30° C.
(Biolayer interferometry detects binding as a change in optical thickness at a sensor tip.)

The target of assay [2] is VEGFR2 expressed by HUVEC (human, UniProt P35968 20-1356). Kind of assay: cell-based or functional assay.

Positions of bridges follow the written chain, without caps; N, C: chain ends.

T1 sequence (P35968 20-764 limits assumed): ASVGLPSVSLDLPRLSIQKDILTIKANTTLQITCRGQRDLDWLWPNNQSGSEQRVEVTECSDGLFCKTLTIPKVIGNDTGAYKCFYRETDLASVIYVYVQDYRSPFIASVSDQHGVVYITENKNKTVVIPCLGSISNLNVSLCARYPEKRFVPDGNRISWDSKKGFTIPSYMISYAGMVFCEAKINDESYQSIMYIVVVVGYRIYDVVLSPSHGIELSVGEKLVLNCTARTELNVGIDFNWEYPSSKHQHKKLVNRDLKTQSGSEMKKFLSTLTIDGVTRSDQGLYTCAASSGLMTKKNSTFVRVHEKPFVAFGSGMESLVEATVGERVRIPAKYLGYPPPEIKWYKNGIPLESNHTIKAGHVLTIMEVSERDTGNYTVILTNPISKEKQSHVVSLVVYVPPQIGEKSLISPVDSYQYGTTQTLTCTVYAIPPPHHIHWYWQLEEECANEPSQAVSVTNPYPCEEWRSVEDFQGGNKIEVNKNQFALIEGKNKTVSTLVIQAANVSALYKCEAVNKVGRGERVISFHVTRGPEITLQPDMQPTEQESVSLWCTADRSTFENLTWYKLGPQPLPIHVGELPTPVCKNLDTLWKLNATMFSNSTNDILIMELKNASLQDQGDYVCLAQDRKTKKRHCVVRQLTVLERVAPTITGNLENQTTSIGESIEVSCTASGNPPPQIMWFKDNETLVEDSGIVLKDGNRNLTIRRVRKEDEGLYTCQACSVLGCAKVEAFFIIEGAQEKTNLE
VEGFR2 expressed by HUVEC, sequence (P35968 20-1356): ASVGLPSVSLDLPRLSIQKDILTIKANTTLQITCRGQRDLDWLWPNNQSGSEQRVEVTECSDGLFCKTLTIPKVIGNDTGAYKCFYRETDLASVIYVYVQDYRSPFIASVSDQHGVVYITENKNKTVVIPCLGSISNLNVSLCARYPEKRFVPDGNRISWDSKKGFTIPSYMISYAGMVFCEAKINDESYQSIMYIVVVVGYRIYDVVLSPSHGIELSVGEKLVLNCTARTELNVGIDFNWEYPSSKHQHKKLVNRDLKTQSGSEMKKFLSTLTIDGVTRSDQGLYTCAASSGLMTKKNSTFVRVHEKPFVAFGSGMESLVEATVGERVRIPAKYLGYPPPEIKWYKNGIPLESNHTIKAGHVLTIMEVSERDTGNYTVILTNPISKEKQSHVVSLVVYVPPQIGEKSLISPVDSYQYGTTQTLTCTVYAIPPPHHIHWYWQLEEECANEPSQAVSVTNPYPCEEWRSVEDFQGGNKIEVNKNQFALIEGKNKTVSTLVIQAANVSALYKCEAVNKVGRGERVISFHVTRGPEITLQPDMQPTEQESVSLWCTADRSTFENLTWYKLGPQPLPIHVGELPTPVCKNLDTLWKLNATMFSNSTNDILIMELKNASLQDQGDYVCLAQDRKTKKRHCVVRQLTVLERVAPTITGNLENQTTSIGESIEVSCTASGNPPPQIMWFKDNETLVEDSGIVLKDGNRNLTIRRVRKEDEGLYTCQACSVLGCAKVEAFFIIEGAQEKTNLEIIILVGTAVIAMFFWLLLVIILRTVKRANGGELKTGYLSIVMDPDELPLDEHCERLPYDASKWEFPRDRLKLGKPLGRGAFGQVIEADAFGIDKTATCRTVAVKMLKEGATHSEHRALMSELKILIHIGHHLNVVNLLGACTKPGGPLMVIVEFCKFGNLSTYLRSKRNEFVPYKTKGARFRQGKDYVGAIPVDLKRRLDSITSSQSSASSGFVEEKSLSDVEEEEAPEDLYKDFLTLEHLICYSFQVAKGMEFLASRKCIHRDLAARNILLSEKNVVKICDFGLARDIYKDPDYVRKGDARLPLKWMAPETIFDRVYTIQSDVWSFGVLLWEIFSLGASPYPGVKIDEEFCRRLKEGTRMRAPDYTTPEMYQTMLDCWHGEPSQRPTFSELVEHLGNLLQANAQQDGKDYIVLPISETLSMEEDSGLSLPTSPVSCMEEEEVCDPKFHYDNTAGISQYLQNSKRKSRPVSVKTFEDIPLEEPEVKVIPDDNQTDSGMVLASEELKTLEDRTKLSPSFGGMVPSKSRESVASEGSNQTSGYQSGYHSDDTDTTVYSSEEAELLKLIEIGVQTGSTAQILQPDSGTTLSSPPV

B1: cyclic peptide L1, synthesized: ClAc-Phe-Val-Val-Val-Ser-Thr-Asp-Pro-Trp-Val-Asn-Gly-Leu-Tyr-Ile-Asp-Cys-Gly (peptide)
peptide: {CH2CO}-FVVVSTDPWVNGLYIDCG-NH2
modifications: thioether N-17
SMILES: CC[C@H](C)[C@@H]1NC(=O)[C@H](Cc2ccc(O)cc2)NC(=O)[C@H](CC(C)C)NC(=O)CNC(=O)[C@H](CC(N)=O)NC(=O)[C@H](C(C)C)NC(=O)[C@H](Cc2c[nH]c3ccccc23)NC(=O)[C@@H]2CCCN2C(=O)[C@H](CC(=O)O)NC(=O)[C@H]([C@@H](C)O)NC(=O)[C@H](CO)NC(=O)[C@H](C(C)C)NC(=O)[C@H](C(C)C)NC(=O)[C@H](C(C)C)NC(=O)[C@H](Cc2ccccc2)NC(=O)CSC[C@@H](C(=O)NCC(N)=O)NC(=O)[C@H](CC(=O)O)NC1=O
notes: Made by Fmoc solid-phase synthesis, cyclised and HPLC purified; this form was used in BLI and in the cell assays
With B1, in assay [1], binding was characterised by a dissociation constant (Kd) of 94 nM, the koff stood at 0.002 s⁻¹ and the kon came out at 20000 M⁻¹ s⁻¹. Further, in assay [2], the “growth inhibition of HUVEC with 10 ng/mL VEGF (BrdU method), IC50” value is 60 nM.
